Laboratory results taken from the supplement of paper PMC9732359.
± gives the uncertainty stated by the source.

Assay: protein stability index of a GFP-peptide fusion (yeast GPS) (PSI 1-4); higher = more stable; sorted into four equal gates, so the index is relative within each strain
Settings: san1∆
Method in brief: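 The protein stability index of a peptide was calculated by multiplying its read frequency in each gate by that gate's number and adding the products. The peptides were tiled 17-residue stretches of yeast proteins, fused downstream of GFP on a Cherry-expressing plasmid and carried in yeast as a pooled library. Mid-log cultures in leucine-free medium were sorted into four equal gates by GFP/Cherry ratio, and each gate's plasmids were PCR-amplified and Illumina-sequenced.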
For FKKSKIDHINEESWEKV [SCL1], the protein stability index was 2.84 ± 0.049.

Same assay, conditions: ubr1∆
For ENYSAMIFETIVDGKLK [FAS1], the protein stability index was 3.09 ± 0.16. Work on EPEEEKSKREEEAKSVL [ARP9] yielded a protein stability index of 3.25 ± 0.17. In the case of EPGHAADQEQAKLIRSA [RPO21], the protein stability index is reported as 3.12 ± 0.1. Sequence EPTVRIQAVFCLTKFQD [YCG1] has a protein stability index of 2.78 ± 0.047. EPYARVSGDLNPIHVSR [FAS1] gave a protein stability index of 2.83 ± 0.1. For EPYHFISNYNTKYTDDM [SRB8], the protein stability index was 3.19 ± 0.1. EQELAHILLTELLAYQF [FAS2] gave a protein stability index of 2.633 ± 0.019. Sequence EQHNLVKKGPVRLPTKV [RPS20] has a protein stability index of 2.64 ± 0.075. EQKITEIEDGQDGGVTP [RPO21] gave a protein stability index of 3.31 ± 0.067. Work on EQQKEELTDKLSALNSE [SMC1] yielded a protein stability index of 3.14 ± 0.12. Sequence EQQPEQPQETEEHHEEE [RPT4] has a protein stability index of 3.44 ± 0.1. EQTVSAVTEATSTNGDS [RGR1] gave a protein stability index of 3.43 ± 0.12. In the case of EQWITIESQMRDLILTE [PRP8], the protein stability index is reported as 3.14 ± 0.077. With EREIKRRKFDPSSSENV [UBP6] the protein stability index was 3.33 ± 0.13. ERHGYIRGIVKQIVHDS [RPL2A] gave a protein stability index of 1.79 ± 0.05. ERKKSIGSQRGRRLSML [DSN1] showed a protein stability index of 2.92 ± 0.093. In the case of ERLKVPILVTLVSDSEI [POP6], the protein stability index is reported as 1.66 ± 0.025. Sequence ERLMTWKFKSLIEILRL [RRI2] has a protein stability index of 2.31 ± 0.032. ERSDLLPYLSDTCAVSF [YJR042W/NUP85] showed a protein stability index of 2.45 ± 0.041. ERSICALGEFADWDPES [YML031W/NDC1] showed a protein stability index of 3.27 ± 0.064. For ERYSDKYLKKRKIGISI [RPC31], the protein stability index was 2.44 ± 0.21. In the case of ERYYELAFDKLNVPVFQ [ARP7], the protein stability index is reported as 2.07 ± 0.07. ESAFENLMGNRNNHNSN [SNF12] gave a protein stability index of 3.44 ± 0.21. In the case of ESEKLVTPEDVMTISSL [RPC82], the protein stability index is reported as 3.26 ± 0.072. In the case of ESENFKIIALQPNEISF [RGR1], the protein stability index is reported as 2.49 ± 0.075. Work on ESHIDSRNNTLNVTPSK [SIR4] yielded a protein stability index of 2.63 ± 0.033. With ESILQMNQGEGEPEAGN [RPC34] the protein stability index was 3 ± 0.13. In the case of ESKLKIDPDTKAPNAVV [RPB11], the protein stability index is reported as 2.92 ± 0.14. ESKSLLNLFSNVLKAPF [SIR4] showed a protein stability index of 2.48 ± 0.077. In the case of ESLRGILHVRAQYCYKN [SRP72], the protein stability index is reported as 2.13 ± 0.062. ESLVHSALCILKEQELV [BRR2] showed a protein stability index of 2.51 ± 0.13. With ESQQQDESLKDEATVPN [SWI3] the protein stability index was 3.21 ± 0.098. ESSHEQEEFVQFLQLDN [ECM29] showed a protein stability index of 3.29 ± 0.14. ESSKALADSLDRCVDPE [DIS3] gave a protein stability index of 2.38 ± 0.19. ESVELPLTHPELYEEMG [RPT2] gave a protein stability index of 2.74 ± 0.037. ETFSTSAHQSPIMQTQM [SNF2] showed a protein stability index of 3.15 ± 0.04. In the case of ETIIFDSELNRALFETK [RRI1], the protein stability index is reported as 3.35 ± 0.17. For ETISKLNEYKRETLVKT [SMC2], the protein stability index was 2.57 ± 0.034. Work on ETKTKKEKIKGLQDEIM [SMC4] yielded a protein stability index of 3.38 ± 0.068. Work on ETKWDDADEKSSNLYET [YJR042W/NUP85] yielded a protein stability index of 3.25 ± 0.097. ETNLQTFLPPLLLKLAS [ECM29] showed a protein stability index of 2.11 ± 0.034. Work on ETRAELSQLCAVPLQIV [RPO21] yielded a protein stability index of 2.71 ± 0.19. In the case of ETVFNYRLMIKRLNFSF [GRR1], the protein stability index is reported as 1.31 ± 0.074. Sequence EVAKKRSRKTVKAQRPI [RPL24A] has a protein stability index of 3.17 ± 0.16. For EVIGYIAAGTYGKVYKA [SSN3], the protein stability index was 1.9 ± 0.045. EVLNRVASRHPSESEHP [YDL116W/NUP84] gave a protein stability index of 3.24 ± 0.075. EVNISSLDAREANFDLI [RPC40] showed a protein stability index of 3.22 ± 0.068. In the case of EVNREEAIGFIRGSNKF [SMC3], the protein stability index is reported as 2.57 ± 0.09. Sequence EVNSKKKNKRALPNIEN [BRR2] has a protein stability index of 3.09 ± 0.068. For EVQRILIELLTQMDGFD [RPT3], the protein stability index was 1.81 ± 0.069. In the case of EVRAISVAKIRFPETMD [RPO21], the protein stability index is reported as 3.28 ± 0.044. For EVSALVRSLPKEEQPKQ [PRP8], the protein stability index was 1.08 ± 0.051. Sequence EVTAGEAQDEASLQQQQ [SNF6] has a protein stability index of 3.6 ± 0.27. EVVEVQEETVVEQTAEV [RPS12] gave a protein stability index of 3.24 ± 0.097. EVYNVIASDGSYVNYRH [RPO21] showed a protein stability index of 3.08 ± 0.091. With EYALEAVKRGTCAVGVK [PRE6] the protein stability index was 2.92 ± 0.084. EYINNCKKNTKKCLKLA [POP4] showed a protein stability index of 2.78 ± 0.14. Work on EYQSLMSLKDKLLIQID [SMC1] yielded a protein stability index of 2.38 ± 0.092. EYWAQRKKKFVLDVDPK [ISW2] gave a protein stability index of 3.28 ± 0.21. For FAAIPEQGIELEHIDSK [FAS2], the protein stability index was 3.41 ± 0.1. In the case of FANNLKSAISNNFRESD [SIR4], the protein stability index is reported as 2.41 ± 0.042. Sequence FATNEERQMNFLTNELI [SWI3] has a protein stability index of 2.62 ± 0.053. FCPIVEEIVSNSSRFSD [YCS4] showed a protein stability index of 2.35 ± 0.057. Work on FDDNDSGNNYNDINISS [MED2] yielded a protein stability index of 3.151 ± 0.028. FDEEFDPFKTSSFNKRS [IRR1] showed a protein stability index of 2.78 ± 0.084. FDNFLTEEELQAAVPDN [BRN1] gave a protein stability index of 2.65 ± 0.051. In the case of FDSELIHLKQKLSESLD [SMC3], the protein stability index is reported as 3.24 ± 0.14. FDYSVILNSIPAAANLD [YJL039C/NUP192] showed a protein stability index of 1.26 ± 0.047. With FEENDHPNRVLEHLHST [COR1] the protein stability index was 3.07 ± 0.049. With FEGDSNMLICAPTGSGK [BRR2] the protein stability index was 2.18 ± 0.071. In the case of FEKNTILQQRSKINSTE [MED4], the protein stability index is reported as 3.15 ± 0.086. For FEQPSQREEAKKVVKKA [RPL27A], the protein stability index was 3.05 ± 0.14. With FEVLAPKWERVFLFDIE [RRI2] the protein stability index was 2.52 ± 0.068. FGAKPDENKASATSKPA [YJL041W/NSP1] gave a protein stability index of 2.74 ± 0.052. Work on FGAKSDEKKDSDSSKPA [YJL041W/NSP1] yielded a protein stability index of 3.04 ± 0.086. In the case of FGKKRLDLAGPLLAQLF [RPB2], the protein stability index is reported as 1.4 ± 0.18. With FGKTTANLPANSSTSPA [YLR335W/NUP2] the protein stability index was 3.12 ± 0.035. FGNKPAGSTGFSFGQNN [YGR119C/NUP57] gave a protein stability index of 1.29 ± 0.28. Work on FGPKKENRKKDESDSEN [YLR335W/NUP2] yielded a protein stability index of 3.42 ± 0.091. For FGQKGGQAIVVHPDYLY [FAS2], the protein stability index was 1.68 ± 0.049. For FGSGTQNNNTLGGGGLF [YGR119C/NUP57], the protein stability index was 3.11 ± 0.054. In the case of FGTGKRLAKKVARRNAD [RPS24A], the protein stability index is reported as 3.31 ± 0.039. Sequence FGVSFIYAGYDDRYGYQ [PRE9] has a protein stability index of 2.45 ± 0.11. Work on FGYDIPLLDIVLKADRS [YML103C/NUP188] yielded a protein stability index of 2.66 ± 0.057. For FHILLKLILEWVAPQES [ECM29], the protein stability index was 1.77 ± 0.14. FHTSFSAVVGPNGSGKS [SMC4] gave a protein stability index of 3.37 ± 0.12. Work on FIEDLAPEQQVQQFAQL [UBP6] yielded a protein stability index of 2.98 ± 0.037. With FIFQIIEITNSNDLCSQ [SRB8] the protein stability index was 1.21 ± 0.075. FILADAGLEITSDNLLT [RPP1B] gave a protein stability index of 2.73 ± 0.049. Work on FIRHVAKLNYKNLNPAS [ECM29] yielded a protein stability index of 1.03 ± 0.076. FIRYDVKTPKKTKYILQ [CSN12] gave a protein stability index of 2.35 ± 0.051. FISYHDKYLCMLKTCVF [NUT1] showed a protein stability index of 2.13 ± 0.042. Sequence FITNVQSISQNSSSSTP [SWI1] has a protein stability index of 2.44 ± 0.05. With FKAEKLQIVNQLPANMV [RPC17] the protein stability index was 3.13 ± 0.056. In the case of FKAIHGSQLRLSEWEEY [YCS4], the protein stability index is reported as 1.29 ± 0.029. FKAMEDVIAWKNVLANS [ITC1] showed a protein stability index of 3.49 ± 0.16. In the case of FKKSKIDHINEESWEKV [SCL1], the protein stability index is reported as 2.69 ± 0.039.
